Laboratory results reported in patent US20130108623A1.

How the values were obtained:
FcγRIIa (H) variant = FcγRIIa (H) variant (UniProt P12318); experiment: in vitro binding, method not stated for the single mutant
FcγRIIb = FcγRIIb (UniProt P31994); experiment: as above
UniProt P31994, sequence (P31994 43-217 limits assumed): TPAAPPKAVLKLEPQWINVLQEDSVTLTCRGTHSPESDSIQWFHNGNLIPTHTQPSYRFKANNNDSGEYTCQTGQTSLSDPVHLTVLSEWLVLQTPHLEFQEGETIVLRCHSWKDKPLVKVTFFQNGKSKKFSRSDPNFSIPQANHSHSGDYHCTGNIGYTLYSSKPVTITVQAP

UniProt P12318, sequence (P12318 34-217 limits assumed, change not shown): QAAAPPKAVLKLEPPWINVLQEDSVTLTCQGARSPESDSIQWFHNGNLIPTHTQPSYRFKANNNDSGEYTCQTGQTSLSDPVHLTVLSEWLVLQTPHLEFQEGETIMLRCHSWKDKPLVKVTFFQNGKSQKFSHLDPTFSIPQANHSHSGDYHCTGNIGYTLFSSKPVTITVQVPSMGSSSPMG

fold reduction of binding against wild type (FcγRIIa (H) variant) | fold reduction of binding against wild type (FcγRIIb) | fold improvement of binding against wild type (FcγRIIb) | Substance
100 fold | 100 fold |  | Fc variant D270N (single mutation) (antibody)
 |  | 4 fold | Fc variant K326E (single mutation) (antibody)
